This note sets out measurements from patent US20110118447A1.

Substitutions are numbered along the chain they refer to. Names may count otherwise.

First the molecules themselves.
B1: C5A (XPA23) light chain variable region D92A (antibody, V domains shown)
VH: EVQLLESGGGLVQPGGSLRLSCAASGFTFSKYFMFWVRQAPGKGLEWVSVISPSGGMTRYADSVKGRFTISRDNSKNTLYLQMNSLRAEDTAVYYCARVGYGGNSDYWGQGTLVTVSS
VL: DIQMTQSPSSVSASVGDRLTIICRASQDINRWLAWYQQTPGNAPKLLIHSATSLQSGVPSRFSGSGSGTDFTLTINSLQPEDFATYYCQQAASFPLTFGGGTKVEIK
B2: C5A (XPA23) light chain variable region P95A (antibody, V domains shown)
VH: B1 VH
VL: B1 VL with A92D, P95A
B3: C5A (XPA23) light chain variable region F94V (antibody, V domains shown)
VH: B1 VH
VL: B1 VL with A92D, F94V
B4: C5A (XPA23) light chain variable region S93V (antibody, V domains shown)
VH: B1 VH
VL: B1 VL with A92D, S93V
B5: C5A (XPA23) light chain variable region F94L (antibody, V domains shown)
VH: B1 VH
VL: B1 VL with A92D, F94L
B6: C5A (XPA23) light chain variable region S93I (antibody, V domains shown)
VH: B1 VH
VL: B1 VL with A92D, S93I
B7: C5A (XPA23) light chain variable region D92G (antibody, V domains shown)
VH: B1 VH
VL: B1 VL with A92G
B8: C5A (XPA23) light chain variable region L96T (antibody, V domains shown)
VH: B1 VH
VL: B1 VL with A92D, L96T
B9: C5A (XPA23) light chain variable region D92L (antibody, V domains shown)
VH: B1 VH
VL: B1 VL with A92L
B10: C5A (XPA23) light chain variable region F94I (antibody, V domains shown)
VH: B1 VH
VL: B1 VL with A92D, F94I
B11: C5A (XPA23) light chain variable region S93G (antibody, V domains shown)
VH: B1 VH
VL: B1 VL with A92D, S93G
B12: C5A (XPA23) light chain variable region S93L (antibody, V domains shown)
VH: B1 VH
VL: B1 VL with A92D, S93L
B13: C5A (XPA23) light chain variable region L96I (antibody, V domains shown)
VH: B1 VH
VL: B1 VL with A92D, L96I
B14: C5A (XPA23) light chain variable region S93A (antibody, V domains shown)
VH: B1 VH
VL: B1 VL with A92D, S93A
B15: C5A (XPA23) light chain variable region S93T (antibody, V domains shown)
VH: B1 VH
VL: B1 VL with A92D, S93T
B16: C5A (XPA23) light chain variable region L96A (antibody, V domains shown)
VH: B1 VH
VL: B1 VL with A92D, L96A
B17: C5A (XPA23) light chain variable region F94P (antibody, V domains shown)
VH: B1 VH
VL: B1 VL with A92D, F94P
B18: C5A (XPA23) (antibody, V domains shown)
VH: B1 VH
VL: B1 VL with A92D

The first assay has as its target binding partner of C5A (XPA23). The experiment in a line: Biacore, mutant vs original C5A (XPA23). Background: Surface plasmon resonance follows binding to a sensor surface in real time, without labels.
Consider B1, for which the fold difference in affinity in comparison to original turned out to be 0.4 fold. For the molecule B2, the fold difference in affinity in comparison to original is 3.83 fold. On the same count and under the same terms, under B3 stands 0.2 fold. For the molecule B4, the fold difference in affinity in comparison to original was found to be 3.81 fold. In the case of B5, the fold difference in affinity in comparison to original worked out at 0.55 fold. B6: the fold difference in affinity in comparison to original turned out to be 1.35 fold. The same measure, in the same setting: under B7 stands 0.26 fold; under B8, 0.06 fold; under B9, 0.14 fold. For the molecule B10, the fold difference in affinity in comparison to original is 0.88 fold.

B11: the fold difference in affinity in comparison to original was 0.75 fold. The same measure, in the same setting: the figure for B12 is 1.08 fold; for B13 it is 0.67 fold; for B14 it is 1.16 fold. Regarding B15, the fold difference in affinity in comparison to original amounted to 1.47 fold.

Take B16: the fold difference in affinity in comparison to original worked out at 0.26 fold. In the case of B17, the fold difference in affinity in comparison to original was determined as 0.17 fold.

Another assay addresses binding partner (antigen) of ING-1. Put plainly: Biacore, internal control.
As to “ING-1 (original, unmodified variable domain) (antibody)”, the fold difference in affinity vs original amounted to 1.38 fold.

The target of the next assay is binding partner of C5A (XPA23). Put plainly: Biacore; internal control, L96 L is identical to the original C5A (XPA23).
As to B18, the fold difference in affinity in comparison to original is 1.16 fold.

The next assay addresses binding partner (antigen) of ING-1, not given. Put plainly: Biacore; internal control identical to original.
“ING-1 antibody variable domain (original, unmodified)” showed a fold difference in affinity vs original of 1.38 fold.

The target of a further assay is binding partner of C5A (XPA23). Put plainly: Biacore (K-off), clones identical to parent C5A (XPA23).
For B18, the mean fold affinity of internal controls vs original stood at 1.03 fold.
